Molecular target: IL-17A (agonist in the IL-17RA/IL17RC dimerization assay) (UniProt Q16552 24-155)
Test: cell-based or functional assay

IL-17A (agonist in the IL-17RA/IL17RC dimerization assay), sequence (Q16552 24-155 limits assumed): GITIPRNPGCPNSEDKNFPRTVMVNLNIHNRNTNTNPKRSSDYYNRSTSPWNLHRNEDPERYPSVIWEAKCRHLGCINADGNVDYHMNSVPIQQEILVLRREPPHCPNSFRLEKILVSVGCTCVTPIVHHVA

| Binder | IC50 in IL-17RA/IL7RC dimerization assay [µM] |
| --- | --- |
| Ac-IHVTIPLEIFEWAQH-NH2 [peptide of SEQ ID NO: 247] | < 10 |
| Ac-VRVTVPQELYEWVRR-NH2 [peptide of SEQ ID NO: 234] | < 10 |
| Ac-VPGAGVMVTIPADLYEWIEE-NH2 [peptide of SEQ ID NO: 35] | < 1 |
| Ac-VEFNFPQQVYEWFDD-NH2 [peptide of SEQ ID NO: 255] | < 10 |
| Ac-VRVTVPQELWEWVRR-NH2 [peptide of SEQ ID NO: 235] | < 10 |
| Ac-GGKETWWETWVMVTIPADLYEWIEE-NH2 [peptide of SEQ ID NO: 33] | < 1 |
| Ac-IHVTIPGEIFEWLQH-NH2 [peptide of SEQ ID NO: 250] | < 10 |
| Ac-TWYVFNEQHQEYVRK-NH2 [peptide of SEQ ID NO: 257] | < 10 |
| Ac-LRISVPADLWDWINK-NH2 [peptide of SEQ ID NO: 240] | < 10 |
| Ac-VMVTIPADLYEWIEERRRRRRRR-NH2 [peptide of SEQ ID NO: 30] | < 1 |
| Ac-VHVSVPQELWEWVRR-NH2 [peptide of SEQ ID NO: 231] | < 10 |
| Ac-VRIYLPADLWDWINK-NH2 [peptide of SEQ ID NO: 245] | < 10 |
| Ac-VHVTVPQELFEWVRR-NH2 [peptide of SEQ ID NO: 225] | < 10 |
| Ac-VKISVPADLWDWINK-NH2 [peptide of SEQ ID NO: 239] | < 10 |
| Ac-VRFSVPQEIYEWVRR-NH2 [peptide of SEQ ID NO: 251] | < 10 |
| Ac-GGTWWTEWSQVMVTIPADLYEWIEE-NH2 [peptide of SEQ ID NO: 32] | < 1 |
| Ac-VRLYVPADLWDWINK-NH2 [peptide of SEQ ID NO: 244] | < 10 |
| Ac-VPGKGVMVTIPADLYEWIEE-NH2 [peptide of SEQ ID NO: 36] | < 1 |
| Ac-VMVTIPADLYEWIEE-NH2 [peptide of SEQ ID NO: 18] | < 0.4 |

| Binder | IC50 in IL-17RA/IL7RC dimerization assay [µM] |
| --- | --- |
| Ac-VKISVPLEIFEWLQH-NH2 [peptide of SEQ ID NO: 254] | < 10 |
| Ac-VMVTIPADLYEWIEEGGKETWWETW-NH2 [peptide of SEQ ID NO: 25] | < 1 |
| Ac-VHVTVPQELYEWVRR-NH2 [peptide of SEQ ID NO: 226] | < 10 |
| Ac-VHFTVPQELYEWVRR-NH2 [peptide of SEQ ID NO: 238] | < 10 |
| Ac-IMVTIPADLWDWINK-NH2 [peptide of SEQ ID NO: 3] | < 0.4 |
| Ac-IHVTIPADLWDWIND-NH2 [peptide of SEQ ID NO: 223] | < 10 |
| Ac-VMVTIPADLYEWIEEVPGAG-NH2 [peptide of SEQ ID NO: 27] | < 1 |
| Ac-VPGWGVMVTIPADLYEWIEE-NH2 [peptide of SEQ ID NO: 34] | < 1 |
| Ac-VHVTVPQEIYEWVRR-NH2 [peptide of SEQ ID NO: 236] | < 10 |
| Ac-VEFNFPQQVYEWVRR-NH2 [peptide of SEQ ID NO: 256] | < 10 |
| Ac-VHVTVPQELWEWVRR-NH2 [peptide of SEQ ID NO: 224] | < 10 |
| Ac-LRGSVPLEIFEWLQH-NH2 [peptide of SEQ ID NO: 253] | < 10 |
| Ac-ARKKAAKAVMVTIPADLYEWIEE-NH2 [peptide of SEQ ID NO: 31] | < 1 |
| Ac-LRISVPLEIFEWLQH-NH2 [peptide of SEQ ID NO: 252] | < 10 |
| Ac-VMVTIPADLYEWIEEARKKAAKA-NH2 [peptide of SEQ ID NO: 21] | < 1 |
| Ac-VMVTIPADLYEWIEERRRRRR-NH2 [peptide of SEQ ID NO: 19] | < 1 |
| Ac-VHVTVPQELFEWVEE-NH2 [peptide of SEQ ID NO: 228] | < 10 |
| Ac-RRRRRRRRVMVTIPADLYEWIEE-NH2 [peptide of SEQ ID NO: 29] | < 1 |
| Ac-VRVTIPQELWEWVRR-NH2 [peptide of SEQ ID NO: 233] | < 10 |

| Binder | IC50 in IL-17RA/IL7RC dimerization assay [µM] |
| --- | --- |
| Ac-VRGYVPADLWDWINK-NH2 [peptide of SEQ ID NO: 242] | < 10 |
| Ac-IHVTIPLEIFEWLQR-NH2 [peptide of SEQ ID NO: 248] | < 10 |
| Ac-VMVTIPADLYEWIEETWWETWW-NH2 [peptide of SEQ ID NO: 23] | < 1 |
| Ac-VRAYVPADLWDWINK-NH2 [peptide of SEQ ID NO: 243] | < 10 |
| Ac-VHVTIPQEIWEWVRR-NH2 [peptide of SEQ ID NO: 237] | < 10 |
| Ac-IHVTIPLEIFEWLQH-NH2 [peptide of SEQ ID NO: 246] | < 10 |
| Ac-VHVTVPQELYEWVEE-NH2 [peptide of SEQ ID NO: 229] | < 10 |
| Ac-VMVTIPADLYEWINK-NH2 [peptide of SEQ ID NO: 16] | < 0.4 |
| Ac-VMVTIPADLYEWIEEGGTWWTEWSQ-NH2 [peptide of SEQ ID NO: 22] | < 1 |
| Ac-VMVTIPADLYEWIEERQIKIWFQNRRMKWKK-NH2 [peptide of SEQ ID NO: 28] | < 1 |
| Ac-VHVTVPQELWEWVEE-NH2 [peptide of SEQ ID NO: 227] | < 10 |
| Ac-LRIYVPADLWDWINK-NH2 [peptide of SEQ ID NO: 241] | < 10 |
| Ac-VMVTIPADLYEWIEEVPGKG-NH2 [peptide of SEQ ID NO: 26] | < 1 |
| Ac-VMVTIPADLYEWIEEVPGWG-NH2 [peptide of SEQ ID NO: 24] | < 1 |
| Ac-VMVTIPADLYEWIEERRR-NH2 [peptide of SEQ ID NO: 20] | < 1 |
| Ac-VMVTIPADLYEWIRR-NH2 [peptide of SEQ ID NO: 17] | < 0.4 |
| Ac-VHVSIPQELWEWVRR-NH2 [peptide of SEQ ID NO: 230] | < 10 |
| Ac-VHVSVPQELYEWVRR-NH2 [peptide of SEQ ID NO: 232] | < 10 |
| Ac-IHVTIPLEVFEWLQH-NH2 [peptide of SEQ ID NO: 249] | < 10 |

From patent publication US20220112244A1 (DOMPE FARMACEUTICI S P A, published 2022)
